Reference: the supplement of paper PMC9876800

System: peptide library, one residue held at a place counted from the S/T acceptor
Experiment: relative phosphorylation of the sub-library (ratio to the mean residue at this position); higher = residue favoured
Conditions: human
Method in brief: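 Human or orthologue kinase constructs, purified and recombinant, were incubated under kinase-specific conditions in 384-well plates with biotinylated degenerate peptide sub-libraries. Each sub-library fixed one residue at one position around a central Ser/Thr. Incubations lasted 90 min with peptides at 50 μM and 50 μM ATP spiked with γ-32P-ATP, after which spots on streptavidin membranes were phosphorimaged and quantified by densitometry. Relative sub-library phosphorylation is a ratio to the mean residue at that position.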

CHUK, construct: Full length, sequence (O15111 whole entry, looked up): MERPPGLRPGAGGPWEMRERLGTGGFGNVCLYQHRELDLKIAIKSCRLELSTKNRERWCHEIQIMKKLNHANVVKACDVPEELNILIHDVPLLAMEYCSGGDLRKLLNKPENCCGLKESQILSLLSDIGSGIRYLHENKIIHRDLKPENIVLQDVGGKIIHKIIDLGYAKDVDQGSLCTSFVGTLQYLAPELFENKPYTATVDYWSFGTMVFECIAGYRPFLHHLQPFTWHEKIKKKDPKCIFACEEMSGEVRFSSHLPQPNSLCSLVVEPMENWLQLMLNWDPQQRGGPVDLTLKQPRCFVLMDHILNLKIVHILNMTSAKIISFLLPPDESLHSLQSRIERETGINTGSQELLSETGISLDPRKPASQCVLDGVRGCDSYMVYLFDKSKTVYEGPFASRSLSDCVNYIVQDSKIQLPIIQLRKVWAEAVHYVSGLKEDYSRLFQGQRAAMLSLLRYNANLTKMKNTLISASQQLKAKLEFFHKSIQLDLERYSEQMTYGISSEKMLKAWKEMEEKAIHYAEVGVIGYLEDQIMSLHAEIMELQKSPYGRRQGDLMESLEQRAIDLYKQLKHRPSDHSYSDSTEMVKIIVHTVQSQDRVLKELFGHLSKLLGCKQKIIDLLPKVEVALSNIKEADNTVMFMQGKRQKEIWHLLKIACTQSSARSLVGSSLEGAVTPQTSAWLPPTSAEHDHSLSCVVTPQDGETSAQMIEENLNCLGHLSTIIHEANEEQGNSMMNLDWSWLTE

CHUK, construct: Full length (from UniProt O15111)
relative phosphorylation
Conditions	at +1	at +2	at +3	at +4	at -1	at -2	at -3	at -4	at -5
A fixed	0.486	0.954	0.902	0.978	0.716	1.1	0.777	1.15	1.29
D fixed	0.518	1.23	1.9	1.66	1.19	0.571	1.27	2.17	2.57
E fixed	0.61	1.26	2.02	1.55	1.11	1.1	1.53	2.15	2.29
F fixed	1.22	0.635	0.576	0.717	0.688	2	0.809	0.602	0.657
G fixed	1.18	1.55	1.48	1.43	0.615	0.548	1.12	1.55	1.4
H fixed	1.01	1.34	1.14	1.17	1.17	1.23	1.15	0.888	1.12
I fixed	1.94	0.78	0.548	0.769	0.346	0.874	0.365	0.49	0.395
K fixed	0.28	0.408	0.358	0.746	1.5	0.25	0.875	0.417	0.556
L fixed	1.68	0.726	0.688	0.724	0.702	1.59	0.408	0.552	0.548
M fixed	1.86	0.982	0.772	0.918	0.962	1.06	0.784	0.79	0.591
N fixed	0.931	1.9	1.28	1.17	1.58	1.35	1.69	1.17	1.22
P fixed	0.282	1.12	1.16	1.24	1.54	0.68	2.06	1.87	0.981
Q fixed	0.729	1.25	1.24	1.13	1.47	0.804	1.18	0.978	0.889
R fixed	0.162	0.27	0.26	0.177	0.641	0.176	0.728	0.314	0.476
V fixed	1.46	1.1	0.636	0.667	0.688	0.644	0.567	0.547	0.664
W fixed	1.29	0.756	1.04	0.978	0.784	0.663	0.704	0.693	0.791
Y fixed	1.36	0.75	1.01	0.977	1.31	2.36	0.991	0.68	0.562
pThr fixed	0.978	1.06	1.08	1.62	0.755	1.24	1.4	1.56	1.06
pTyr fixed	1.1	1.25	0.908	1.08	1.55	5.95	2.02	1.32	0.984
